Data taken from article doi:10.1101/2024.01.22.576510 (bioRxiv, 2024).

Target: human Na+-taurocholate co-transporting polypeptide (NTCP), detergent-purified, tags cleaved (Homo sapiens, UniProt Q14973)
Assay: cryo-EM structure

Chain of human Na+-taurocholate co-transporting polypeptide (NTCP), detergent-purified, tags cleaved (Q14973 whole entry): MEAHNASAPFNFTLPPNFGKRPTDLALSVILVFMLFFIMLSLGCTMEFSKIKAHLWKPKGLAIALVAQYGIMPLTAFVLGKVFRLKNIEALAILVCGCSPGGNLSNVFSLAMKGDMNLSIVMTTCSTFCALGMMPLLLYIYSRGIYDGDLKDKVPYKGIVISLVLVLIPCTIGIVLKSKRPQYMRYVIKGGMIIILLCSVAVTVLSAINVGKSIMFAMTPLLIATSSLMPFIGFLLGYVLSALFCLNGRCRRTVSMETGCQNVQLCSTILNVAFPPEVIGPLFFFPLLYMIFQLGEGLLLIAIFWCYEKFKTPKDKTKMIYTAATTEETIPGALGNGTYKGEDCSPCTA

B1: Fab3 (Fab, V domains shown)
VH: EVQLVESGGGLVQPGGSLRLSCAASGFNVSSSYIHWVRQAPGKGLEWVASISPYYSYTSYADSVKGRFTISADTSKNTAYLQMNSLRAEDTAVYYCARYQYDYYYSYYAGLDYWGQGTLVTVSS
VL: DIQMTQSPSSLSASVGDRVTITCRASQSVSSAVAWYQQKPGKAPKLLIYSASSLYSGVPSRFSGSRSGTDFTLTISSLQPEDFATYYCQQYRYSLITFGQGTKVEIK
B1: binds.
